The values that follow come from patent publication US20260116980A1 (BEONE MEDICINES I, published 2026).

Where a chain is given by its changes, count along the chain named. Names and notes keep the numbering of the source.

Test [1] deals with T1, human 4Ig-B7H3 on overexpressing cells (NK92mi/B7H3) (human, UniProt Q5ZPR3 29-534).
T1 construct: also called Human B7H3; native B7H3
T1 sequence: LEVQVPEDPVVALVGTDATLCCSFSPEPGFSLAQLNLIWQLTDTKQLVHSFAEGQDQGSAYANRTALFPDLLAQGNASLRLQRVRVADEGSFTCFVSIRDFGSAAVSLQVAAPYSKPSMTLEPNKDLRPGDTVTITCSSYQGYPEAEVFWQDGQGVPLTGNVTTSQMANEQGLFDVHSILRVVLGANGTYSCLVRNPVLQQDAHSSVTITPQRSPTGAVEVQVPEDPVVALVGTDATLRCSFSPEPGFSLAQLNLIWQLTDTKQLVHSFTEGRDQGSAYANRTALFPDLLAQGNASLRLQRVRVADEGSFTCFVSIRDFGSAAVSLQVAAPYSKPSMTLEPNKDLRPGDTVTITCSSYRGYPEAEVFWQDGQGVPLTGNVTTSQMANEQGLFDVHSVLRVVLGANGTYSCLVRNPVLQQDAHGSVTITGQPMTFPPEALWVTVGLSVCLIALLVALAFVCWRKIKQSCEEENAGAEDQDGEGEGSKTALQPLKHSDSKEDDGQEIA
The test can be described thus: FACS on human 4Ig-B7H3 overexpressing cells. As for the experimental part:
(§1) The binding affinity of anti-B7H3 mAb to human 4Ig-B7H3 and cyno B7H3 overexpressing cell lines were determined by FACS. Briefly, human or cyno B7H3 overexpressing cells were incubated with serially diluted purified antibodies, washed, and incubated with anti-mouse IgG secondary Ab conjugated to APC. After incubation and washing, fluorescence was measured by flow cytometry.

The target in test [2] is T2, cyno B7H3 on overexpressing cells (cyno, UniProt A0A7N9CYV2 29-534).
T2 sequence: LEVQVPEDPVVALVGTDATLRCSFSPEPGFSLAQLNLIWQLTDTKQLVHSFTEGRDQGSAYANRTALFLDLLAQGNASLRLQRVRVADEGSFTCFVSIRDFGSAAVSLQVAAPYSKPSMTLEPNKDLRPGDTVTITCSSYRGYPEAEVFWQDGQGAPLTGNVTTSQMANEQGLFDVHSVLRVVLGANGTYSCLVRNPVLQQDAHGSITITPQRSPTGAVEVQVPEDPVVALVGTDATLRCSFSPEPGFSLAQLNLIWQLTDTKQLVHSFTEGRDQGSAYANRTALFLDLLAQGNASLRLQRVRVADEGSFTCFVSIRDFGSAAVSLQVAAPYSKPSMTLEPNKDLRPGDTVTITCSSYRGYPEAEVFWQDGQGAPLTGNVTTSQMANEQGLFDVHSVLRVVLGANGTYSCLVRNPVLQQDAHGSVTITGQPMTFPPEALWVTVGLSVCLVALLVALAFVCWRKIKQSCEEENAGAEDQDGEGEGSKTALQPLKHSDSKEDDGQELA
Put plainly: FACS on cyno B7H3 overexpressing cells. How it is done:
as §1

The target of another test is T3, human ECD-4Ig-B7H3-hFc (human, UniProt Q5ZPR3 29-466).
T3 construct: also called Human B7H3; human B7H3 antigen
T3 sequence: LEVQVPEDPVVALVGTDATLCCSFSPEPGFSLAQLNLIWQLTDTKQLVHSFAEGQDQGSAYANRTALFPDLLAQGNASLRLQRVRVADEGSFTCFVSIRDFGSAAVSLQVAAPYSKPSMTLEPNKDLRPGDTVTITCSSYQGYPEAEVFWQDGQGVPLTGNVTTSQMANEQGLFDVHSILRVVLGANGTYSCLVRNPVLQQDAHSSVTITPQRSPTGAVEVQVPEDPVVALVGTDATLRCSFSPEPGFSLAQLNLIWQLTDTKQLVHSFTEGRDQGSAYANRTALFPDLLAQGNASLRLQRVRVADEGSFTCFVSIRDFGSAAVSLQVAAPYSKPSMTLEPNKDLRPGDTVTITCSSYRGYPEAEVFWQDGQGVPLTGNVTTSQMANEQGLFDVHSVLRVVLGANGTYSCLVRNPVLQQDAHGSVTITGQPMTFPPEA
The test can be described thus: SPR (BIAcore T-200), antibody captured by anti-mouse IgG Fc, antigen in flow, 1:1 Langmuir model. An excerpt: After immobilization, serial dilutions of the ectodomain of human or cyno B7H3 were passed over the chip. […] Thus, the light gray lines are serial dilutions of human B7H3 protein, and the dark gray lines are fitted curves corresponding to different human B7H3 concentrations. The dotted line is the highest concentration of B7H3 protein. The results were used to calculate the rates of association (Kon) and dissociation (Koff) for BGA-3295.
Briefly, anti-mouse IgG Fc antibody was immobilized on an activated CM5 biosensor chip (Cat. No. BR100530, GE Life Sciences). Purified antibodies were flowed over the chip surface and captured by anti-mouse IgG Fc antibody. Then a serial dilution of human ECD-4Ig-B7H3-hFc was flowed over the chip surface and changes in surface plasmon resonance signals were analyzed to calculate the association rates (kₒₙ) and dissociation rates (koff) by using the one-to-one Langmuir binding model (BIA Evaluation Software, GE Life Sciences). The equilibrium dissociation constant (KD) was calculated as the ratio koff/kₒₙ.

Test [3] has as its target T1, human 4Ig-B7H3 on overexpressing cells …. The test can be described thus: FACS on live NK92mi/B7H3 cells, goat anti-human IgG detection, Test1. How it is done:
(§2) Goat anti-human IgG was used as the second antibody to detect antibody binding to the cell surface. EC₅₀ values for dose-dependent binding to human native B7H3 were determined by fitting the dose-response data to the four-parameter logistic model with GraphPad Prism.

The target of test [4] is T4, ECD of human 4Ig-B7H3 (Sinobiological, Cat: 11188-H08H) (human, UniProt Q5ZPR3 29-466).
T4 construct: Bought protein; also called recombinant B7H3
T4 sequence: T3 sequence
The test can be described thus: SPR, antibody captured on anti-human Fc surface, Test 1. An excerpt: (§3) For affinity determination, antibodies were captured by an anti-human Fc surface, and used in the affinity-assay based on surface plasmon resonance (SPR) technology. The results of SPR-determined binding profiles of anti-B7H3 antibodies to the ECD of human 4Ig-B7H3 (Sinobiological, Cat: 11188-H08H) are summarized in Table 5.

Test [5] addresses T4, ECD of human 4Ig-B7H3 (Sinobiological, …). Put plainly: SPR, antibody captured on anti-human Fc surface, Test 2.
Source text: as §3

In test [6] the target is T1, human 4Ig-B7H3 on overexpressing cells …. Put plainly: FACS on live NK92mi/B7H3 cells, goat anti-human IgG detection, Test2. How it is done: as §2

B1: BGA-3726 (purified anti-B7H3 mAb as used in Examples 2-4) (antibody, V domains shown)
VH: QVQLQESGPGLVKPSGTLSLTCAVSGGSISTSNWWNWVRQSPGKGLEWIGEIYPTGNTNYSPSLKSRVTISIDKSKNQFSLKLNSVTAADTAVYYCARGWNWFDPWGQGTLVTVSS
VL: EIVLTQSPGTLSLSPGERATLSCRTSQSINGILLAWYQQKPGQAPRLLIYGASSRATGIPDRFSGSGSGTDFTLSISRLEPEDFAVYYCQQYGSSPRTFGQGTKVEIK
notes: It was captured by anti-mouse IgG Fc in SPR and detected with anti-mouse IgG in FACS; The source mice make human variable and rat constant regions; also called BGA-3276
For the molecule B1, the response in test [1] was half-maximal at 1910 pM (EC50). The molecule further showed an EC50 in test [2] of 1320 pM. In the test with human ECD-4Ig-B7H3-hFc, this molecule registered a Kd of 12.4 pM, an off-rate constant (koff) of 4.49e-06 s⁻¹ and an association rate constant (kon) of 363000 M⁻¹ s⁻¹.

B2: BGA-3726 in human full-length format (human IgG1 variant IgG1mf / kappa) (antibody, V domains shown)
VH: B1 VH
VL: EIVLTQSPGTLSLSPGERATLSCRTSQSINGILLAWYQQKPGQAPRLLIYGASSRATGIPDRFSGSGSGTDFTLSISRLEPEDFAVYYCQQYGSSPRTFGQGTKVEIKR
For B2, the EC50 in test [3] is 1440 pM. In test [4], binding was characterised by a dissociation constant (Kd) of 424 pM, the koff is 0.000136 s⁻¹ and the kon is 321000 M⁻¹ s⁻¹. In test [5], this molecule displayed a Kd of 470 pM, an off-rate (koff) of 0.000207 s⁻¹ and a kon of 442000 M⁻¹ s⁻¹.

B3: BGA-4498 (BGA-3726 variant comprising W96Y in HCDR3) (antibody, human IgG1, kappa, V domains shown)
VH: B1 VH with W100Y
VL: B2 VL
As for B3, in test [4], the Kd stood at 632 pM, the koff came out at 0.000199 s⁻¹ and the kon worked out at 315000 M⁻¹ s⁻¹.

B4: BGA-5488 (W34Y in HCDR1, W96Y and W98Y in HCDR3 and G30A in LCDR1 based on BGA-3726) (antibody, human IgG1, kappa, V domains shown)
VH: B1 VH with W34Y, W100Y, W102Y
VL: B2 VL with G31A
In turn, B4 gave a 50% effective concentration (EC50) in test [6] of 1450 pM. In test [5], the Kd was determined as 1110 pM, the koff is 0.000326 s⁻¹ and the kon is 295000 M⁻¹ s⁻¹.

B5: BGA-6938 (W34Y in HCDR1, W96Y in HCDR3 and G30A in LCDR1 based on BGA-3726), human IgG1 variant IgG1mf / kappa format (antibody, V domains shown)
VH: B1 VH with W34Y, W100Y
VL: B2 VL with G31A
The molecule B5 gave an EC50 in test [6] of 1190 pM. Further, in test [5], the affinity, expressed as Kd, was 443 pM; the koff was 0.000224 s⁻¹; the kon turned out to be 506000 M⁻¹ s⁻¹.

B6: BGA-4265 (BGA-3726 variant comprising G30A in LCDR1) (antibody, human IgG1, kappa, V domains shown)
VH: B1 VH
VL: B2 VL with G31A
Take B6: in test [4], the Kd amounted to 308 pM, the koff was determined as 0.000128 s⁻¹ and the kon was determined as 414000 M⁻¹ s⁻¹.

B7: BGA-4380 (BGA-3726 variant comprising N29Q in LCDR1) (antibody, human IgG1, kappa, V domains shown)
VH: B1 VH
VL: B2 VL with N30Q
Consider B7, for which, in test [4], binding was characterised by a dissociation constant (Kd) of 635 pM, the off-rate constant (koff) is 0.000237 s⁻¹ and the kon is 373000 M⁻¹ s⁻¹.

B8: BGA-4269 (BGA-3726 variant comprising W98Y in HCDR3) (antibody, human IgG1, kappa, V domains shown)
VH: B1 VH with W102Y
VL: B2 VL
Molecule B8 registered a kon in test [4] of 142000 M⁻¹ s⁻¹.

B9: BGA-4826 (BGA-3726 variant comprising W34Y in HCDR1) (antibody, human IgG1, kappa, V domains shown)
VH: B1 VH with W34Y
VL: B2 VL
In test [4], B9 came in with a Kd of 596 pM, an off-rate constant (koff) of 0.000171 s⁻¹ and a kon of 288000 M⁻¹ s⁻¹.
